According to US8679765B2, “Methods and compositions for diagnosis and treatment of malignant and non-malignant gammopathies” (Ludwig Institute for Cancer Research Ltd., priority 2009, dated 2014):

Key:
[1] = test system: paratarg-specific paraprotein (patients' sera); experiment: Paraprotein binding to recombinant paratarg, stomatin family members and paratarg peptides/fragments (dot blot, ELISA, peptide spot analysis); set-up: species or system human; details: for recognition by paratarg-specific paraproteins / patients' serum: ELISA, Western blotting or peptide spot analysis
Description: 100 ng of each recombinant protein were separated by SDS-PAGE and transferred to PVDF membrane (Millipore Immobilon) by semidry blotting. The membrane was blocked in TST/milk buffer (10% milk in 10 mM Tris/HCl, pH 7.5, 150 mM NaCl, 0.1% (v/v) Tween 20) overnight, washed and incubated for 1 h with serum in TST (paraprotein patients serum at a dilution of 1:10^8 and control patients serum at a dilution of 1:10^3). After three washings in TST, the membranes were incubated for 1 h at RT with goat anti-human IgG AP-coupled antibody (Dianova) diluted 1:5,000 in TST, subsequently washed in TST followed by AP-development.
His6-tagged fusion proteins were spotted on nitrocellulose membranes. After spotting, the protein arrays were blocked, incubated and detected as described above.
The epitopes recognized by the patients' paraproteins were identified as described before (Preuss et al, 2006). In brief: matrix-bound synthesized decamer peptides with 5 amino acids overlaps between every 2nd consecutive decamer covering the entire paratarg sequence were used to screen patients sera. Paratarg-specific paraproteins binding to the corresponding paratarg epitopes were visualized by ECL technique according to the suppliers' instructions (PIERCE, Rockford, USA). Finally, matrix stripes were photographed for documentation.
Full-length paratarg was recombinantly expressed in HEK293 cells under control of CMV promoter introducing a FLAG tag at the C-terminus of the protein. Total cell extract was prepared and coated indirectly to Nunc maxisorb plates using anti-FLAG mAb (Sigma). Elisa was performed according standard protocols. Partially truncated paratarg fragments were processed accordingly.
Paratarg fragments were obtained by PCR amplification using suitable primers and verified by sequencing. These fragments were subcloned into the vector and expressed as described before.

[2] = test system: paraproteins of serum pool #1 (MGUS/MM patients' sera); experiment: Serum profiling on high density protein arrays (paraprotein screening of hEx1 human fetal brain macroarray); format: binding; set-up: key: Paraprotein-binding quality/strength are ++, + and ±.; Paraprotein-binding quality/strength are ++, + and ±.; Paraprotein-binding quality/strength are ++, + and ±; details: serum pool #1 (n=114), each serum diluted 1:10^8
Description: Screening analyses were performed on hEx1 high-density protein expression cDNA libraries, created in Hans Lehrach's laboratory at the Max Planck Institute for Molecular Genetics in Berlin (Germany) and obtained from the Reference Center of the German Human Genome Project (RZPD) (Bussow et al, 1998). These high-density filter membranes display proteins that were expressed from a modified pQE protein expression vector (Qiagen). This vector featured a hexahistidine tag, a T5 promoter and two lac operator sequences, which allowed repression during the growth phase by overexpression of the Lac repressor protein, and subsequent induction of protein expression with isopropyl-beta-D-thiogalactopyranoside (IPTG).
High density protein arrays of the protein expression set of the hEx1 library were obtained from the German Resource Center for Genome Research (RZPD) and provided by Dr. Mahlknecht from our department. They consist of 37,200 independent clones derived from a human fetal brain cDNA expression library and were used for autoantibody detection. For serum profiling, the filters were blocked in 10% (w/v) non-fat, dry milk powder in TBST (TBS, 0.1% (v/v) Tween 20) at 4° C. overnight, washed twice in TBST, and incubated for 1 h with serum pool #1 at a dilution of 1:10^8 for each serum. Following three 30-min TBST washes and subsequent incubation with the secondary antibody (goat anti-human IgG biotinylated, Dianova, diluted 1:2.500) and Strep-PDX (1:15.000) in 2% (w/v) Milk/TBST, the filters were washed three times for 30 min in TBST. This was followed by detection using Pharmacia ECL system. Positive signals were localized according to the manufacturer's protocol. Corresponding clones were obtained from RZPD.
In this study we screened a human high-density protein array containing 37,200 independent recombinant proteins derived from a human fetal brain expression library with sera obtained from patients with monoclonal gammopathy of undetermined significance (MGUS) and multiple myeloma (MM).
The signal pattern obtained from the screening with the paraprotein pools at a dilution of 1:10^8 were compared with the patterns obtained from screening with the control sera from clinically healthy donors and to background incubations. […] 5′- and 3′-tag sequencing of these clones was performed, and their sequences were used for BLAST searches against public databases at NCBI.
Using serum pool #1 (paraprotein type: 15 IgA, 88 IgG, 11 oligoclonal, n=114) we identified 14 putative paraprotein targets on the human protein filter array (FIG. 1, Tab. 1). […] Sequence searches and comparisons using the in-frame sequences identified five known proteins and one unknown gene product derived from chromosome 8.

Molecule	recognition by paratarg-specific paraproteins / patients' serum [1]	Signal-quality (paraprotein-binding quality/strength) [2]	also measured
stomatin: recombinantly expressed human stomatin family member	no signal	–	–
SLLASGRAP [paratarg amino acid region]	recognized	–	–
SLLASGRAPRRASSG [15 amino acid region near the N-terminal end of paratarg]	recognized by patients' serum	–	–
MPMGp800P18577: RZPD clone, NM_004323.3 (protein, UniProt Q99933 1-345, looked up) BAG family molecular …: MAQRGGARRPRGDRERLGSRLRALRPGREPRQSEPPAQRGPPPSGRPPARSTASGHDRPTRGAAAGARRPRMKKKTRRRSTRSEELTRSEELTLSEEATWSEEATQSEEATQGEEMNRSQEVTRDEESTRSEEVTREEMAAAGLTVTVTHSNEKHDLHVTSQQGSSEPVVQDLAQVVEEVIGVPQSFQKLIFKGKSLKEMETPLSALGIQDGCRVMLIGKKNSPQEEVELKKLKHLEKSVEKIADQLEELNKELTGIQQGFLPKDLQAEALCKLDRRVKATIEQFMKILEEIDTLILPENFKDSRLKRKGLVKKVQAFLAECDTVEQNICQETERLQSTNFALAE	–	+	–
SLP-1: recombinantly expressed human stomatin family member (protein) MLGRSGYRALPLGDFDRFQQSSFGFLGSQKGCLSPERGGVGTGADVPQSWPSCLCHGLISFLGFLLLLVTFPISGWFALKIVPTYERMIVFRLGRIRTPQGPGMVLLLPFIDSFQRVDLRTRAFNVPPCKLASKDGAVLSVGADVQFRIWDPVLSVMTVKDLNTATRMTAQNAMTKALLKRPLREIQMEKLKISDQLLLEINDVTRAWGLEVDRVELAVEAVLQPPQDSPAGPNLDSTLQQLALHFLGGSMNSMAGGAPSPGPADTVEMVSEVEPPAPQVGARSSPKQPLAEGLLTALQPFLSEALVSQVGACYQFNVVLPSGTQSAYFLDLTTGRGRVGHGVPDGIPDVVVEMAEADLRALLCRELRPLGAYMSGRLKVKGDLAMAMKLEAVLRALK	no signal	–	–
MPMGp800P21581: RZPD clone, NM_001622.1 (protein, UniProt P02765 19-300; P02765 341-367, looked up) Alpha-2-HS-glycoprotein chain … 1: APHGPGLIYRQPNCDDPETEEAALVAIDYINQNLPWGYKHTLNQIDEVKVWPQQPSGELFEIEIDTLETTCHVLDPTPVARCSVRQLKEHAVEGDCDFQLLKLDGKFSVVYAKCDSSPDSAEDVRKVCQDCPLLAPLNDTRVVHAAKAALAAFNAQNNGSNFQLEEISRAQLVPLPPSTYVEFTVSGTDCVAKEATEAAKCNLLAEKQYGFCKATLSEKLGGAEVAVTCMVFQTQPVSSQPQPEGANEAVPTPVVDPDAPPSPPLGAPGLPPAGSPPDSHVL Alpha-2-HS-glycoprotein chain … 2: TVVQPSVGAAAGPVVPPCPGRIRHFKV	–	+	–
MPMGp800E08580: RZPD clone, NM_004819.1 (protein, UniProt Q92797 1-1274, looked up) Symplekin: MASGSGDSVTRRSVASQFFTQEEGPGIDGMTTSERVVDLLNQAALITNDSKITVLKQVQELIINKDPTLLDNFLDEIIAFQADKSIEVRKFVIGFIEEACKRDIELLLKLIANLNMLLRDENVNVVKKAILTMTQLYKVALQWMVKSRVISELQEACWDMVSAMAGDIILLLDSDNDGIRTHAIKFVEGLIVTLSPRMADSEIPRRQEHDISLDRIPRDHPYIQYNVLWEEGKAALEQLLKFMVHPAISSINLTTALGSLANIARQRPMFMSEVIQAYETLHANLPPTLAKSQVSSVRKNLKLHLLSVLKHPASLEFQAQITTLLVDLGTPQAEIARNMPSSKDTRKRPRDDSDSTLKKMKLEPNLGEDDEDKDLEPGPSGTSKASAQISGQSDTDITAEFLQPLLTPDNVANLVLISMVYLPEAMPASFQAIYTPVESAGTEAQIKHLARLMATQMTAAGLGPGVEQTKQCKEEPKEEKVVKTESVLIKRRLSAQGQAISVVGSLSSMSPLEEEAPQAKRRPEPIIPVTQPRLAGAGGRKKIFRLSDVLKPLTDAQVEAMKLGAVKRILRAEKAVACSGAAQVRIKILASLVTQFNSGLKAEVLSFILEDVRARLDLAFAWLYQEYNAYLAAGASGSLDKYEDCLIRLLSGLQEKPDQKDGIFTKVVLEAPLITESALEVVRKYCEDESRTYLGMSTLRDLIFKRPSRQFQYLHVLLDLSSHEKDKVRSQALLFIKRMYEKEQLREYVEKFALNYLQLLVHPNPPSVLFGADKDTEVAAPWTEETVKQCLYLYLALLPQNHKLIHELAAVYTEAIADIKRTVLRVIEQPIRGMGMNSPELLLLVENCPKGAETLVTRCLHSLTDKVPPSPELVKRVRDLYHKRLPDVRFLIPVLNGLEKKEVIQALPKLIKLNPIVVKEVFNRLLGTQHGEGNSALSPLNPGELLIALHNIDSVKCDMKSIIKATNLCFAERNVYTSEVLAVVMQQLMEQSPLPMLLMRTVIQSLTMYPRLGGFVMNILSRLIMKQVWKYPKVWEGFIKCCQRTKPQSFQVILQLPPQQLGAVFDKCPELREPLLAHVRSFTPHQQAHIPNSIMTILEASGKQEPEAKEAPAGPLEEDDLEPLTLAPAPAPRPPQDLIGLRLAQEKALKRQLEEEQKLKPGGVGAPSSSSPSPSPSARPGPPPSEEAMDFREEGPECETPGIFISMDDDSGLTEAALLDSSLEGPLPKETAAGGLTLKEERSPQTLAPVGEDAMKTPSPAAEDAREPEAKGNS	–	+	–
paratarg: stomatin-like protein 2 (SLP-2), SEQ ID NO: 1, antigenic paraprotein target (protein, listed as Homo sapiens) MLARAARGTGALLLRGSLLASGRAPRRASSGLPRNTVVLFVPQQEAWVVERMGRFHRILEPGLNILIPVLDRIRYVQSLKEIVINVPEQSAVTLDNVTLQIDGVLYLRIMDPYKASYGVEDPEYAVTQLAQTTMRSELGKLSLDKVFRERESLNASIVDAINQAADCWGIRCLRYEIKDIHVPPRVKESMQMQVEAERRKRATVLESEGTRESAINVAEGKKQAQILASEAEKAEQINQAAGEASAVLAKAKAKAEAIRILAAALTQHNGDAAASLTVAEQYVSAFSKLAKDSNTILLPSNPGDVTSMVAQAMGVYGALTKAPVPGTPDSLSSGSSRDVQGTDASLDEELDRVKMS	–	–	serum dilution at which recognition was detectable ([1]; individual patient sera): 10^10; titer of paraprotein-containing sera reacting with the antigen ([1]; sera of more than two patients): > 10^8
MPMGp800E08596: RZPD clone coding for paratarg (protein, left off: small tags and cut ends, RZPD clone coding for paratarg) MLARAARGTGALLLRGSLLASGRAPRRASSGLPRNTVVLFVPQQEAWVVERMGRFHRILEPGLNILIPVLDRIRYVQSLKEIVINVPEQSAVTLDNVTLQIDGVLYLRIMDPYKASYGVEDPEYAVTQLAQTTMRSELGKLSLDKVFRERESLNASIVDAINQAADCWGIRCLRYEIKDIHVPPRVKESMQMQVEAERRKRATVLESEGTRESAINVAEGKKQAQILASEAEKAEQINQAAGEASAVLAKAKAKAEAIRILAAALTQHNGDAAASLTVAEQYVSAFSKLAKDSNTILLPSNPGDVTSMVAQAMGVYGALTKAPVPGTPDSLSSGSSRDVQGTDASLDEELDRVKMS	–	++	–
